Assay results taken from publication PMC12037675, “Design of self-emulsifying oral delivery systems for semaglutide: reverse micelles versus hydrophobic ion pairs” (Drug Delivery and Translational Research, 2024).
Blank lines part the entries; values can stand above or below the molecule they belong to.

Columns and labels:
[1] = Hydrophobic ion pairing with ethyl lauroyl arginate: precipitation efficiency; format: physicochemical; details: 1:1 charge ratio (peptide:surfactant), peptide in 0.001 M NaOH, 2 h, 400 rpm, ambient temperature; mean ± SD
Experimental: Hydrophobic ion pairs were formed in order to increase lipophilicity of semaglutide according to previous studies. The peptide was dissolved in 0.001 M NaOH in a concentration of 10 mg/ml to obtain a negative net charge. Ethyl lauroyl arginate, as a cationic counter ion was dissolved in demineralized water. Equal amounts (500 µL: 500 µL) of peptide and surfactant solution were combined corresponding to a charge ratio of 1:1 (peptide:surfactant). Samples were agitated at 400 rpm for 2 h on a thermomixer (Eppendorf, Austria) at ambient temperature. Precipitates were separated from the solution by centrifugation at 12,045 RCF for 10 min (Minispin, Eppendorf, Austria). Precipitation efficiency was determined according to the following equation:1 [drawing 1]

[2] = cited from earlier work
[3] = Solubility of (poly)peptides in lipid phases via reverse micelles (dry addition) or HIP; format: physicochemical
Experimental: (Poly)peptide loaded RM were prepared utilizing 200 mM of surfactants dissolved within the oily phase (GML/C8 (1:4; m/m), GMCC/C8 (1:4; m/m) and GMCC/GML (1:4; m/m)) in order to guarantee formation of reverse micelles. Loaded reverse micelles were prepared by the addition of semaglutide to surfactant-oil solutions (200 mM ELA or 200 mM DOC) resulting in a final concentration of 50 mg/mL. The mixtures were vortexed and treated with ultrasound for 30 min before incubation at 1200 rpm at room temperature (RT). Formation of reverse micelles by dry addition method, describing the direct addition of the API in powdered form to lipophilic solvents without use of any additional solvents, was investigated for semaglutide and three further (poly)peptides for comparison. In that regard, semaglutide with a molecular weight of 4.1 kDa was compared to colistin representing the smallest investigated peptide (1.1 kDa). In addition, two larger polypeptides, lysozyme (LYS, 14.4 kDa) and bovine serum albumin (BSA, 66.4 kDa) were investigated. At predetermined time points the dissolved (poly)peptide in supernatant was quantified by HPLC after centrifugation at 12,045 RCF for 10 min.

log D lipid phase/water = format: physicochemical
Experimental: Retention of drug within lipid phase after emulsification is crucial for the active ingredient to reach the absorption membrane in intact form. Thus, high log Dlipid phase/water values are substantial for lipophilic complexes of semaglutide. In brief, 200 µL of peptide loaded RM or HIP complexes corresponding to 2 mg of semaglutide in the lipid phases GML/C8 (1:4; m/m), […] were underlaid with 200 µL of demineralized water and incubated at 300 rpm on a thermomixer for 24 h. In the following samples were centrifuged at 12,045 RCF for 10 min and 100 µL aliquots from both phases were withdrawn and the amount of peptide was quantified by HPLC. The distribution coefficient was calculated according to Eq. 3:3 [drawing 5]
where [drawing 6] corresponds to peptide concentration in the lipophilic phase after incubation and [drawing 7] to peptide concentration in the water phase after incubation. Log Dlipid phase/water values for reference (poly)peptides were determined in the same manner.

Caco-2 monolayer = test: Caco-2 permeation study; format: in vitro ADME, human; details: Caco-2 on 24-well Transwell, 21 days, apical to basolateral, HBS pH 6.8, SEDDS 0.05% (v/v), 6 h; ELISA; means n = 4
Experimental: The ability of native semaglutide as well as semaglutide-RM loaded SEDDS and SEDDS containing HIP to permeate the intestinal epithelium was investigated using Caco-2 cells. Caco-2 cell line was seeded on a 24-well Transwell filters plate at a cell density of 1.25 × 10^5 cells/cm^2. Cells were cultivated for 21 days replacing the media every second day. On the day of the experiment, cells were washed twice using sterile HBS buffer pH 6.8. To start the experiment after the equilibration period, the buffer was removed and replaced with 100 µL of either native semaglutide solution in sterile HBS buffer pH 6.8 or semaglutide-RMs loaded SEDDS diluted to a concentration of 0.05% (v/v) with sterile HBS buffer pH 6.8. Sterile HBS buffer (500 µL) was added to basolateral side. At predetermined time points, 100 µL were withdrawn from basolateral chambers and replaced with prewarmed HBS. The amount of semaglutide in the basolateral chamber was measured through ELISA (KRIBIOLISA™ Semaglutide ELISA, Krishgen BioSystems, US). Transepithelial electric resistance (TEER) in a range of 1200–3300 ohm/cm^2 were measured ensuring integrity of cell monolayers (Evom2, World Precision Instrument Inc., USA).

Molecule: bovine serum albumin [66.4 kDa reference polypeptide]
Precipitation efficiency of HIP with ethyl lauroyl arginate [1]: 39.1 ± 2.2% | Isoelectric point (IEP) [2]: 5.0 | Solubility within reverse micelles ([3]; even after prolonged incubation time, dry addition, 200 mM surfactant, RT, HPLC): below 1 mg/mL

Change in lipophilicity (log D lipid phase/water) in RM (log D lipid phase/water; RM formed with docusate): enhanced lipophilicity | Change in lipophilicity (log D lipid phase/water) in RM (log D lipid phase/water; RM formed with ethyl lauroyl arginate): almost no increase in lipophilicity
Molecule: colistin [1.1 kDa reference peptide]
Isoelectric point (IEP) [2]: 5.0

Apparent permeability coefficient (Papp) (Caco-2 monolayer): significantly lower Papp value | Maximum solubility within reverse micelles ([3]; after 48 h to 72 h, dry addition, 200 mM ELA or DOC, 50 mg/mL added, RT, HPLC, means n ≥ 3): ~100% | Solubility in RM in comparison to HIP ([3]; best performing lipid phase glycerol monocaprylocaprate:caprylic acid 1:4 (m/m)): at least 2 fold
Molecule: CC[C@H](C)[C@H](NC(=O)[C@H](Cc1ccccc1)NC(=O)[C@H](CCC(=O)O)NC(=O)[C@H](CCCCNC(=O)COCCOCCNC(=O)COCCOCCNC(=O)CC[C@H](NC(=O)CCCCCCCCCCCCCCCCC(=O)O)C(=O)O)NC(=O)[C@H](C)NC(=O)[C@H](C)NC(=O)[C@H](CCC(N)=O)NC(=O)CNC(=O)[C@H](CCC(=O)O)NC(=O)[C@H](CC(C)C)NC(=O)[C@H](Cc1ccc(O)cc1)NC(=O)[C@H](CO)NC(=O)[C@H](CO)NC(=O)[C@@H](NC(=O)[C@H](CC(=O)O)NC(=O)[C@H](CO)NC(=O)[C@@H](NC(=O)[C@H](Cc1ccccc1)NC(=O)[C@@H](NC(=O)CNC(=O)[C@H](CCC(=O)O)NC(=O)C(C)(C)NC(=O)[C@@H](N)Cc1cnc[nH]1)[C@@H](C)O)[C@@H](C)O)C(C)C)C(=O)N[C@@H](C)C(=O)N[C@@H](Cc1c[nH]c2ccccc12)C(=O)N[C@@H](CC(C)C)C(=O)N[C@H](C(=O)N[C@@H](CCCNC(=N)N)C(=O)NCC(=O)N[C@@H](CCCNC(=N)N)C(=O)NCC(=O)O)C(C)C [semaglutide]

Molecule: lysozyme [14.4 kDa reference polypeptide]
Precipitation efficiency of HIP with ethyl lauroyl arginate [1]: 0.0 ± 1.7% | Isoelectric point (IEP) [2]: 11.0 | Solubility in RM, times lower compared to semaglutide ([3]; reverse micelles, dry addition, pronounced increase only after 72 h): about 10 times | Improvement in lipophilicity in RM compared to the native peptide (log D lipid phase/water; log D lipid phase/water, RM): up to 600 fold
